The record followed here is paper PMC6555819, “Comprehensive study of nuclear receptor DNA binding provides a revised framework for understanding receptor specificity”.

The chains are these.
B1: NRC3_wobSeed140_DR5_T15A_o1 (dsDNA)
DNA 1: GCAGAATGAGGTTAAACGTAGATCAGGGAAGAAAGTGCGATTGACAGCGTAGAATGAAGG
DNA 2: CCTTCATTCTACGCTGTCAATCGCACTTTCTTCCCTGATCTACGTTTAACCTCATTCTGC
B2: NRC3_wobSeed77_DR3_A14T_o1 (dsDNA)
DNA 1: GCACTTACGGGTCTACGAGGTTATAGCACGCGTATAGCGATTGACAGCGTAGAATGAAGG
DNA 2: CCTTCATTCTACGCTGTCAATCGCTATACGCGTGCTATAACCTCGTAGACCCGTAAGTGC
B3: NRC3_wobSeed77_DR3_G11C_o1 (dsDNA)
DNA 1: GCACTTACGGCTCAACGAGGTTATAGCACGCGTATAGCGATTGACAGCGTAGAATGAAGG
DNA 2: CCTTCATTCTACGCTGTCAATCGCTATACGCGTGCTATAACCTCGTTGAGCCGTAAGTGC
B4: NRC3_wobSeed104_DR4_A14G_o1 (dsDNA)
DNA 1: GCTCTTGTAGATCGATAGAGGTTAAGAAAGTGCGCTGCGATTGACAGCGTAGAATGAAGG
DNA 2: CCTTCATTCTACGCTGTCAATCGCAGCGCACTTTCTTAACCTCTATCGATCTACAAGAGC
B5: NRC3_wobSeed104_DR4_G20A_o1 (dsDNA)
DNA 1: GCTCTTGTAGATCAATAGAAGTTAAGAAAGTGCGCTGCGATTGACAGCGTAGAATGAAGG
DNA 2: CCTTCATTCTACGCTGTCAATCGCAGCGCACTTTCTTAACTTCTATTGATCTACAAGAGC
B6: NRC3_wobSeed73_DR3_A18T_o1 (dsDNA)
DNA 1: GCCAAACTAGGTCACAGTGGTCAAAGTCCGTGCGTAGCGATTGACAGCGTAGAATGAAGG
DNA 2: CCTTCATTCTACGCTGTCAATCGCTACGCACGGACTTTGACCACTGTGACCTAGTTTGGC
B7: NRC3_wobSeed34_DR1_G14T_o1 (dsDNA)
DNA 1: GCATCGAAAGGTCTAAGGTGAGTATACCCACCCGAAGCGATTGACAGCGTAGAATGAAGG
DNA 2: CCTTCATTCTACGCTGTCAATCGCTTCGGGTGGGTATACTCACCTTAGACCTTTCGATGC
B8: NRC3_wobSeed34_DR1_G14C_o1 (dsDNA)
DNA 1: GCATCGAAAGGTCCAAGGTGAGTATACCCACCCGAAGCGATTGACAGCGTAGAATGAAGG
DNA 2: CCTTCATTCTACGCTGTCAATCGCTTCGGGTGGGTATACTCACCTTGGACCTTTCGATGC
B9: NRC3_wobSeed66_DR2_C13G_o1 (dsDNA)
DNA 1: GCAATACAGGGTGACTAGGCCAGAGTAGGTACGAATGCGATTGACAGCGTAGAATGAAGG
DNA 2: CCTTCATTCTACGCTGTCAATCGCATTCGTACCTACTCTGGCCTAGTCACCCTGTATTGC
B10: NRC3_wobSeed102_DR4_G19A_o1 (dsDNA)
DNA 1: GCCCTAGCAGGCCAATCTAGGTCACTCAAGGCTTGAGCGATTGACAGCGTAGAATGAAGG
DNA 2: CCTTCATTCTACGCTGTCAATCGCTCAAGCCTTGAGTGACCTAGATTGGCCTGCTAGGGC
B11: NRC3_wobSeed128_DR5_G27T_o1 (dsDNA)
DNA 1: GCTCTTGTAGATCAACAGGAGGTTAATAAAGATCGAGCGATTGACAGCGTAGAATGAAGG
DNA 2: CCTTCATTCTACGCTGTCAATCGCTCGATCTTTATTAACCTCCTGTTGATCTACAAGAGC
B12: NRC3_wobSeed64_DR2_A4T_o1 (dsDNA)
DNA 1: GCTTGCCTAGGTCATTGGGCCAGTATAGTACGCATCGCGATTGACAGCGTAGAATGAAGG
DNA 2: CCTTCATTCTACGCTGTCAATCGCGATGCGTACTATACTGGCCCAATGACCTAGGCAAGC
B13: NRC3_wobSeed138_DR5_C7T_o1 (dsDNA)
DNA 1: GCGATATAGGGTCAGCTAGAGGCCAGAGTATGGAAAGCGATTGACAGCGTAGAATGAAGG
DNA 2: CCTTCATTCTACGCTGTCAATCGCTTTCCATACTCTGGCCTCTAGCTGACCCTATATCGC
B14: NRC3_wobSeed74_DR3_C26A_o1 (dsDNA)
DNA 1: GCTCTAGTTGGTCACGGAGGTCACAAACGACGGGTAGCGATTGACAGCGTAGAATGAAGG
DNA 2: CCTTCATTCTACGCTGTCAATCGCTACCCGTCGTTTGTGACCTCCGTGACCAACTAGAGC
B15: NRC3_wobSeed74_DR3_T21A_o1 (dsDNA)
DNA 1: GCTCTAGTTGGTCACGGAGGACACACACGACGGGTAGCGATTGACAGCGTAGAATGAAGG
DNA 2: CCTTCATTCTACGCTGTCAATCGCTACCCGTCGTGTGTGTCCTCCGTGACCAACTAGAGC
B16: NRC3_wobSeed74_DR3_A23C_o1 (dsDNA)
DNA 1: GCTCTAGTTGGTCACGGAGGTCCCACACGACGGGTAGCGATTGACAGCGTAGAATGAAGG
DNA 2: CCTTCATTCTACGCTGTCAATCGCTACCCGTCGTGTGGGACCTCCGTGACCAACTAGAGC
B17: NRC3_wobSeed28_DR1_C20G_o1 (dsDNA)
DNA 1: GCCCTACTGGGCCAAAGGTGATTGATTCCAATGCTCGCGATTGACAGCGTAGAATGAAGG
DNA 2: CCTTCATTCTACGCTGTCAATCGCGAGCATTGGAATCAATCACCTTTGGCCCAGTAGGGC
B18: NRC3_wobSeed88_DR3_G24A_o1 (dsDNA)
DNA 1: GCTAGCCTAGGTCATGCGGGCCAATATAGTGTCGGCGCGATTGACAGCGTAGAATGAAGG
DNA 2: CCTTCATTCTACGCTGTCAATCGCGCCGACACTATATTGGCCCGCATGACCTAGGCTAGC
B19: NRC3_wobSeed113_DR4_A24C_o1 (dsDNA)
DNA 1: GCATATGTAGGTTAGCTGGGGTCCTTCAGACTAGGCGCGATTGACAGCGTAGAATGAAGG
DNA 2: CCTTCATTCTACGCTGTCAATCGCGCCTAGTCTGAAGGACCCCAGCTAACCTACATATGC
B20: NRC3_wobSeed141_DR5_C13G_o1 (dsDNA)
DNA 1: GCAGTCAAAGTTGAGGACGAGGTAACGTAAAGCACGGCGATTGACAGCGTAGAATGAAGG
DNA 2: CCTTCATTCTACGCTGTCAATCGCCGTGCTTTACGTTACCTCGTCCTCAACTTTGACTGC
B21: NRC3_wobSeed117_DR4_G10C_o1 (dsDNA)
DNA 1: GCCGTCAAACTTCAACTAAGGTAACGTAAAGCACGCGCGATTGACAGCGTAGAATGAAGG
DNA 2: CCTTCATTCTACGCTGTCAATCGCGCGTGCTTTACGTTACCTTAGTTGAAGTTTGACGGC
B22: NRC3_wobSeed29_DR1_A14C_o1 (dsDNA)
DNA 1: GCGCTTACGGGTCCAAGGTTATAGCATGAATAGAATGCGATTGACAGCGTAGAATGAAGG
DNA 2: CCTTCATTCTACGCTGTCAATCGCATTCTATTCATGCTATAACCTTGGACCCGTAAGCGC
B23: NRC3_wobSeed65_DR2_G11T_o1 (dsDNA)
DNA 1: GCATATGTAGTTTATCGGGTCATTCAGTTTGCGCATGCGATTGACAGCGTAGAATGAAGG
DNA 2: CCTTCATTCTACGCTGTCAATCGCATGCGCAAACTGAATGACCCGATAAACTACATATGC
B24: NRC3_wobSeed65_DR2_T24A_o1 (dsDNA)
DNA 1: GCATATGTAGGTTATCGGGTCATACAGTTTGCGCATGCGATTGACAGCGTAGAATGAAGG
DNA 2: CCTTCATTCTACGCTGTCAATCGCATGCGCAAACTGTATGACCCGATAACCTACATATGC
B25: NRC3_wobSeed100_DR4_T22C_o1 (dsDNA)
DNA 1: GCCCTACTGGGCCACGAAAGGCCATTGATTCAGTGAGCGATTGACAGCGTAGAATGAAGG
DNA 2: CCTTCATTCTACGCTGTCAATCGCTCACTGAATCAATGGCCTTTCGTGGCCCAGTAGGGC
B26: NRC3_wobSeed87_DR3_A21T_o1 (dsDNA)
DNA 1: GCCGAACTAGGTCATCCAGGTCAGTGAATACATTGAGCGATTGACAGCGTAGAATGAAGG
DNA 2: CCTTCATTCTACGCTGTCAATCGCTCAATGTATTCACTGACCTGGATGACCTAGTTCGGC
B27: NRC3_wobSeed110_DR4_A18T_o1 (dsDNA)
DNA 1: GCTCTGCTAGGTCAACGTTGGTCAGCTAATCTGCTAGCGATTGACAGCGTAGAATGAAGG
DNA 2: CCTTCATTCTACGCTGTCAATCGCTAGCAGATTAGCTGACCAACGTTGACCTAGCAGAGC
B28: NRC3_wobSeed40_DR1_A24G_o1 (dsDNA)
DNA 1: GCTAGCCTAGGTCATGGGCCAGTGTACCACGCGAACGCGATTGACAGCGTAGAATGAAGG
DNA 2: CCTTCATTCTACGCTGTCAATCGCGTTCGCGTGGTACACTGGCCCATGACCTAGGCTAGC
B29: NRC3_wobSeed40_DR1_A4C_o1 (dsDNA)
DNA 1: GCTCGCCTAGGTCATGGGCCAGTATACCACGCGAACGCGATTGACAGCGTAGAATGAAGG
DNA 2: CCTTCATTCTACGCTGTCAATCGCGTTCGCGTGGTATACTGGCCCATGACCTAGGCGAGC
B30: NRC3_wobSeed40_DR1_C13T_o1 (dsDNA)
DNA 1: GCTAGCCTAGGTTATGGGCCAGTATACCACGCGAACGCGATTGACAGCGTAGAATGAAGG
DNA 2: CCTTCATTCTACGCTGTCAATCGCGTTCGCGTGGTATACTGGCCCATAACCTAGGCTAGC
B31: NRC3_wobSeed136_DR5_A14G_o1 (dsDNA)
DNA 1: GCTAGCCTAGGTCGTTCAGGGGCCAGTATAGAAAGCGCGATTGACAGCGTAGAATGAAGG
DNA 2: CCTTCATTCTACGCTGTCAATCGCGCTTTCTATACTGGCCCCTGAACGACCTAGGCTAGC

In the data set the target is LXRa:RXRa (Homo sapiens, UniProt Q13133;P19793 full;full). The data set can be described thus: no ligand; PBM; 270 nM : 90 nM RXRa; PBS pH 7.4, 2% milk, 0.02% Triton X-100, 1 mM DTT, BSA, 0.4 mg/ml salmon testes DNA. Particulars: tags: His kept;His cleaved; copies: 1;1; label: surface-attached array probe. The gist of the method: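 Ligand-free nuclear receptor dimers were applied to custom Agilent 4×180K protein-binding microarrays whose double-stranded probes carried direct-repeat seeds, single-nucleotide variants, half-site ablations and random human genomic background sequences in 34-nt variable regions. Incubation lasted 1 h. Binding z-scores were computed against the random background probes from regression-normalized fluorescence.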
Chain of LXRa:RXRa (Q13133 whole entry, chain 1 of 2): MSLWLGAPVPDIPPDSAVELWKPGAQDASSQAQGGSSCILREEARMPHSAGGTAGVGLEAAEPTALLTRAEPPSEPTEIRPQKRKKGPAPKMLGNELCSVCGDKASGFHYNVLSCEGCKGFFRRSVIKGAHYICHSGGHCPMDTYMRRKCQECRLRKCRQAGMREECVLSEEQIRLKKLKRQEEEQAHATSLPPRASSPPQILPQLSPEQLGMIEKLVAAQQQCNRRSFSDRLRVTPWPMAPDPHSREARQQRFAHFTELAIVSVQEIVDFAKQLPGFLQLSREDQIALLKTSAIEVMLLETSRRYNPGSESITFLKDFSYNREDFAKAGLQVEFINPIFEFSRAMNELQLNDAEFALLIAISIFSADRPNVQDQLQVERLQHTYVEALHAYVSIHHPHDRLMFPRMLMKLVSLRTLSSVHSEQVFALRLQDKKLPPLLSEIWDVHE
Chain of LXRa:RXRa (P19793 whole entry, chain 2 of 2): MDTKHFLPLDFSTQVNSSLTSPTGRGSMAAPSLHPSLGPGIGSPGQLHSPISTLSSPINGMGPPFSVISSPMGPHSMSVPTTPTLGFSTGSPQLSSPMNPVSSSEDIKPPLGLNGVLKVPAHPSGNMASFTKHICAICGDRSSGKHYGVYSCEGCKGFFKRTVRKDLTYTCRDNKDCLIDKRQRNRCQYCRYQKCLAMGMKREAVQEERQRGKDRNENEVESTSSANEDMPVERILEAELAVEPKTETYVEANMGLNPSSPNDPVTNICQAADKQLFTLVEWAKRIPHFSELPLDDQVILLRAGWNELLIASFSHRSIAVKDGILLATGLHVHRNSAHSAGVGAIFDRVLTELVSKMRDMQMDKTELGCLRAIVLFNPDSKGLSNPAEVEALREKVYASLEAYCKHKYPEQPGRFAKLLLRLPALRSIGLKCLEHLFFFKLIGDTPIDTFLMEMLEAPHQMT
For B1, the binding signal is 3.17 PBM z-score against 500 random probes.

For B2, the binding signal was 0.49 PBM z-score against 500 random probes.

B3: the binding signal is 0.33 PBM z-score against 500 random probes.

As for B4, the binding signal is 3.15 PBM z-score against 500 random probes.

For the molecule B5, the binding signal was 0.44 PBM z-score against 500 random probes.

Take B6: the binding signal was 3.02 PBM z-score against 500 random probes.

For B7, the binding signal is 0.34 PBM z-score against 500 random probes.

On to B8, for which the binding signal is 0.27 PBM z-score against 500 random probes.

As to B9, the binding signal is 0.22 PBM z-score against 500 random probes.

As for B10, the binding signal is 3 PBM z-score against 500 random probes.

As to B11, the binding signal was 3.26 PBM z-score against 500 random probes.

In the case of B12, the binding signal is 3.21 PBM z-score against 500 random probes.

As for B13, the binding signal is 3.06 PBM z-score against 500 random probes.

For B14, the binding signal is 3.23 PBM z-score against 500 random probes.

For the molecule B15, the binding signal was 0.43 PBM z-score against 500 random probes.

For B16, the binding signal was 0.41 PBM z-score against 500 random probes.

Consider B17, for which the binding signal was 0.13 PBM z-score against 500 random probes.

Turning to B18, the binding signal was 3.29 PBM z-score against 500 random probes.

For the molecule B19, the binding signal was 0.37 PBM z-score against 500 random probes.

Regarding B20, the binding signal is -0.07 PBM z-score against 500 random probes.

B21: the binding signal is 0.31 PBM z-score against 500 random probes.

For B22, the binding signal was 0.43 PBM z-score against 500 random probes.

In the case of B23, the binding signal was 3.34 PBM z-score against 500 random probes.

As for B24, the binding signal was 3.1 PBM z-score against 500 random probes.

Consider B25, for which the binding signal is -0.05 PBM z-score against 500 random probes.

For B26, the binding signal is 3.37 PBM z-score against 500 random probes.

Take B27: the binding signal is 3.08 PBM z-score against 500 random probes.

Turning to B28, the binding signal was 3.31 PBM z-score against 500 random probes.

In the case of B29, the binding signal is 3.18 PBM z-score against 500 random probes.

As to B30, the binding signal was 0.05 PBM z-score against 500 random probes.

Consider B31, for which the binding signal is 0.19 PBM z-score against 500 random probes.
